Molecular target: CmHRE2-like (CmHRE2L) (UniProt A0AA96PUJ9 1-225)
Assay: EMSA; LightShift Chemiluminescent EMSA Kit (Thermo Fisher); buffer, salt, pH and temperature not stated
Conditions: protein: recombinant; tags: GST (pGEX4T-1, N-terminal); label: biotin

Sequence of CmHRE2-like (CmHRE2L) (A0AA96PUJ9 entry or part of it): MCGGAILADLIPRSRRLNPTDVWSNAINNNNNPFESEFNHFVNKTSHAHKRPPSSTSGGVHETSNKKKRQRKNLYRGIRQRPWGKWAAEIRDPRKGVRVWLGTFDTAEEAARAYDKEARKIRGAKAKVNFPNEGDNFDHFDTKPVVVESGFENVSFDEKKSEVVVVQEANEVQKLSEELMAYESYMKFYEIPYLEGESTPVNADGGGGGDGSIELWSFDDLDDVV

B1: Biotin-mP, probe with mutated cis-element 3 (dsDNA)
DNA 1: ACCTTCATATGCATGAAAAAAAAATTTTCCACTCAACA
DNA 2: TGTTGAGTGGAAAATTTTTTTTTCATGCATATGAAGGT
binding result: no binding

Reference: PMC11874658, “CmHRE2L-CmACS6 transcriptional cascade negatively regulates waterlogging tolerance in Chrysanthemum”
